Assay results reported in ChEMBL document CHEMBL1135258, “Substrate spectrum of tyrocidine thioesterase probed with randomized peptide N-acetylcysteamine thioesters” (Bioorg Med Chem Lett, 2002).

Columns and labels:
Settings in all cases: Brevibacillus brevis
[1] = substrate: CC(=O)NCCSC(=O)[C@H](CC(C)C)NC(=O)[C@H](CCCN)NC(=O)[C@@H](NC(=O)[C@H](Cc1ccc(O)cc1)NC(=O)[C@@H](NC(=O)[C@H](CC(N)=O)NC(=O)[C@@H](Cc1ccccc1)NC(=O)[C@H](Cc1ccccc1)NC(=O)[C@@H]1CCCN1C(=O)[C@H](N)Cc1ccccc1)C(C)C)C(C)C; experiment: (§1) Apparent kinetic constant (Km) determined for tyrocidine thioesterase amplified from Bacillus brevis (ATCC8185)
[2] = substrate: CC(=O)NCCSC(=O)[C@H](CC(C)C)NC(=O)[C@H](CCCN)NC(=O)[C@@H](NC(=O)[C@H](Cc1ccc(O)cc1)NC(=O)[C@H](CC(N)=O)NC(=O)[C@H](CC(N)=O)NC(=O)[C@@H](Cc1ccccc1)NC(=O)[C@H](Cc1ccccc1)NC(=O)[C@@H]1CCCN1C(=O)[C@H](N)Cc1ccccc1)C(C)C; experiment: as §1
[3] = substrate: CC(=O)NCCSC(=O)[C@H](CC(C)C)NC(=O)[C@H](CCCN)NC(=O)[C@@H](NC(=O)[C@H](Cc1ccc(O)cc1)NC(=O)[C@H](CCC(N)=O)NC(=O)[C@H](CC(C)C)NC(=O)[C@@H](Cc1ccccc1)NC(=O)[C@H](Cc1ccccc1)NC(=O)[C@@H]1CCCN1C(=O)[C@H](N)Cc1ccccc1)C(C)C; experiment: as §1
[4] = substrate: CC(=O)NCCSC(=O)[C@H](CC(C)C)NC(=O)[C@H](CCCN)NC(=O)[C@@H](NC(=O)[C@H](Cc1ccc(O)cc1)NC(=O)[C@H](CCC(N)=O)NC(=O)[C@H](CC(N)=O)NC(=O)CNC(=O)[C@H](Cc1ccccc1)NC(=O)[C@@H]1CCCN1C(=O)[C@H](N)Cc1ccccc1)C(C)C; experiment: as §1
[5] = substrate: CC(=O)NCCSC(=O)[C@H](CC(C)C)NC(=O)[C@H](CCCN)NC(=O)[C@@H](NC(=O)[C@H](Cc1ccc(O)cc1)NC(=O)[C@H](CCC(N)=O)NC(=O)[C@H](CC(N)=O)NC(=O)[C@@H](Cc1ccccc1)NC(=O)[C@H](CC(N)=O)NC(=O)[C@@H]1CCCN1C(=O)[C@H](N)Cc1ccccc1)C(C)C; experiment: as §1
[6] = substrate: CC(=O)NCCSC(=O)[C@H](CC(C)C)NC(=O)[C@H](CCCN)NC(=O)[C@@H](NC(=O)[C@H](Cc1ccc(O)cc1)NC(=O)[C@H](CCC(N)=O)NC(=O)[C@H](CC(N)=O)NC(=O)[C@@H](Cc1ccccc1)NC(=O)[C@H](Cc1ccccc1)NC(=O)[C@H](C)NC(=O)[C@H](N)Cc1ccccc1)C(C)C; experiment: as §1
[7] = substrate: CC(=O)NCCSC(=O)[C@H](CC(C)C)NC(=O)[C@H](CCCN)NC(=O)[C@@H](NC(=O)[C@H](Cc1ccc(O)cc1)NC(=O)[C@H](CCC(N)=O)NC(=O)[C@H](CC(N)=O)NC(=O)[C@@H](Cc1ccccc1)NC(=O)[C@H](Cc1ccccc1)NC(=O)[C@H](CC(N)=O)NC(=O)[C@H](N)Cc1ccccc1)C(C)C; experiment: as §1
[8] = substrate: CC(=O)NCCSC(=O)[C@H](CC(C)C)NC(=O)[C@H](CCCN)NC(=O)[C@@H](NC(=O)[C@H](Cc1ccc(O)cc1)NC(=O)[C@H](CCC(N)=O)NC(=O)[C@H](CC(N)=O)NC(=O)[C@H](C)NC(=O)[C@H](Cc1ccccc1)NC(=O)[C@@H]1CCCN1C(=O)[C@H](N)Cc1ccccc1)C(C)C; experiment: as §1
[9] = substrate: CC(=O)NCCSC(=O)[C@H](CC(C)C)NC(=O)[C@H](CCCN)NC(=O)[C@@H](NC(=O)[C@H](Cc1ccc(O)cc1)NC(=O)[C@H](CCC(N)=O)NC(=O)[C@H](CC(N)=O)NC(=O)[C@H](CC(=O)O)NC(=O)[C@H](Cc1ccccc1)NC(=O)[C@@H]1CCCN1C(=O)[C@H](N)Cc1ccccc1)C(C)C; experiment: as §1
[10] = substrate: CC(=O)NCCSC(=O)[C@H](CC(C)C)NC(=O)[C@H](CCCN)NC(=O)[C@@H](NC(=O)[C@H](Cc1ccc(O)cc1)NC(=O)[C@H](CCC(N)=O)NC(=O)[C@H](CC(N)=O)NC(=O)[C@H](CCC(N)=O)NC(=O)[C@H](Cc1ccccc1)NC(=O)[C@@H]1CCCN1C(=O)[C@H](N)Cc1ccccc1)C(C)C; experiment: as §1
[11] = substrate: CC(=O)NCCSC(=O)[C@H](CC(C)C)NC(=O)[C@H](CCCN)NC(=O)[C@@H](NC(=O)[C@H](Cc1ccc(O)cc1)NC(=O)[C@H](CCC(N)=O)NC(=O)[C@H](CC(N)=O)NC(=O)[C@H](CCCN=C(N)N)NC(=O)[C@H](Cc1ccccc1)NC(=O)[C@@H]1CCCN1C(=O)[C@H](N)Cc1ccccc1)C(C)C; experiment: as §1
[12] = substrate: CC(=O)NCCSC(=O)[C@H](CC(C)C)NC(=O)[C@H](CCCN)NC(=O)[C@@H](NC(=O)[C@H](Cc1ccc(O)cc1)NC(=O)[C@H](CCC(N)=O)NC(=O)[C@H](CC(N)=O)NC(=O)[C@H](Cc1c[nH]cn1)NC(=O)[C@H](Cc1ccccc1)NC(=O)[C@@H]1CCCN1C(=O)[C@H](N)Cc1ccccc1)C(C)C; experiment: as §1
[13] = substrate: CC(=O)NCCSC(=O)[C@H](CC(C)C)NC(=O)[C@H](CCCN)NC(=O)[C@@H](NC(=O)[C@H](Cc1ccc(O)cc1)NC(=O)[C@H](CCC(N)=O)NC(=O)[C@H](CC(N)=O)NC(=O)[C@H](Cc1ccc(O)cc1)NC(=O)[C@H](Cc1ccccc1)NC(=O)[C@@H]1CCCN1C(=O)[C@H](N)Cc1ccccc1)C(C)C; experiment: as §1
[14] = substrate: CC(=O)NCCSC(=O)[C@H](CC(C)C)NC(=O)[C@H](CCCN)NC(=O)[C@H](CC(N)=O)NC(=O)[C@H](Cc1ccc(O)cc1)NC(=O)[C@H](CCC(N)=O)NC(=O)[C@H](CC(N)=O)NC(=O)[C@@H](Cc1ccccc1)NC(=O)[C@H](Cc1ccccc1)NC(=O)[C@@H]1CCCN1C(=O)[C@H](N)Cc1ccccc1; experiment: as §1
[15] = substrate: CC(=O)NCCSC(=O)[C@H](CC(C)C)NC(=O)[C@H](CCCN)NC(=O)[C@H](CCC(N)=O)NC(=O)[C@H](Cc1ccc(O)cc1)NC(=O)[C@H](CCC(N)=O)NC(=O)[C@H](CC(N)=O)NC(=O)[C@@H](Cc1ccccc1)NC(=O)[C@H](Cc1ccccc1)NC(=O)[C@@H]1CCCN1C(=O)[C@H](N)Cc1ccccc1; experiment: as §1

B1: Thioesterase GrsT homolog tycF (Brevibacillus brevis), O30412 (protein)
chain: MKLFCFPYAGGLPGIYYSWKSRLPPTFLEIDAFEVRPHIPQPNRDVFLPTSFYELLEDVCDRITPALTETPFAFFGHSMGGLVAFELTRKLMQKGAPLPQHLFLSASRAPHAYGKLAKTYNLPHDEFVEALRKLGGTPDDVLENQELLELFLPILRADFQAVQTYEMNPDLPRQVPVNMTVLYGTEDTIALEDIWAWRDYCQGACQFFPVSGGHFFIHHQTSPILEIIQNVLKEEKTVAIHSSF
Which Km [1] does the source give for B1 here?
Its Km is 54 µM.

And the Km [2]?
The Km was 112 µM.

And the Km [3]?
Its Km is 42 µM.

What about the Km [4] of the same protein?
Its Km is 22 µM.

And the Km [5]?
The Km was 172 µM.

What about the Km [6] of the same protein?
The Km was 31 µM.

And the Km [7]?
The Km was 82 µM.

What about the Km [8] of the same protein?
Its Km is 19 µM.

And the Km [9]?
The Km was 238 µM.

What about the Km [10] of the same protein?
The Km was 16 µM.

And the Km [11]?
The Km was 24 µM.

What about the Km [12] of the same protein?
Its Km is 82 µM.

And the Km [13]?
The Km was 65 µM.

And the Km [14]?
Its Km is 55 µM.

And the Km [15]?
The Km was 62 µM.
